Source: patent US20260132197A1

Assays:
[1] = biological target: human CD47 on cells (SHP-77 tumor cells, human red blood cells, CCRF-CEM cells, human CD47 CHO-K1 stable cell line) (human) (UniProt Q08722); assay: flow cytometry on human RBCs
[2] = biological target: cynomolgus CD47 on CHO-K1 stable cell line (cynomolgus); assay: flow cytometry on cynomolgus CD47 CHO-K1 cells; plateau not reached, not accurate
[3] = biological target: human CD47 on cells (SHP-77 tumor cells, human red blood cells, CCRF-CEM cells, human CD47 CHO-K1 stable cell line) (human) (UniProt Q08722); assay: flow cytometry on human CD47 CHO-K1 cells; plateau not reached, not accurate
[4] = biological target: human CD47 on cells (SHP-77 tumor cells, human red blood cells, CCRF-CEM cells, human CD47 CHO-K1 stable cell line) (human) (UniProt Q08722); assay: cell-based or functional assay
[5] = biological target: human CD47 on cells (SHP-77 tumor cells, human red blood cells, CCRF-CEM cells, human CD47 CHO-K1 stable cell line) (human) (UniProt Q08722); assay: flow cytometry on SHP-77 cells

With TTI-622 fusion protein (Fc fusion) the EC50 [1] was 9.7 nM, the Fitted maximal MFI [1] was 644 MFI and the EC50 [2] was 9.3 nM. It also gave an EC50 [3] of 10.4 nM, a CCRF-CEM phagocytosis EC50 [4] of 0.4 nM and a CCRF-CEM phagocytosis, Phagocytosis (%) [4] of 36.6%. It also gave an EC50 [5] of 4.9 nM and a Fitted maximal MFI [5] of 10500 MFI.
